# Earlier results in paper PMC3749792.
# Columns and labels:
# Test in all cases: NMR
# Details in all cases: RNase T1, presumably free unmodified enzyme (not stated explicitly)
# His27 = His27 (UniProt position 53, AGYQLHEDGET)
# His40 = His40 (UniProt position 66, SNSYPHKYNNY)
# His92 = His92 (UniProt position 118, AGVITHTGASG)
substance,measurement,setting,value
Ribonuclease T1 (RNase T1) (Aspergillus oryzae),pKa,His27,7.26
same,pKa,His40,7.92
same,pKa,His92,7.80
